Measured values published in PMC10843048.

Legend:
His+Ala+TIMP2 (human) = His+Ala+TIMP2 (human) (UniProt P16035); assay: SPR
[1] = target: His+Ala+TIMP2Q186 (human); assay: SPR

Chain of UniProt P16035 (P16035 26-220): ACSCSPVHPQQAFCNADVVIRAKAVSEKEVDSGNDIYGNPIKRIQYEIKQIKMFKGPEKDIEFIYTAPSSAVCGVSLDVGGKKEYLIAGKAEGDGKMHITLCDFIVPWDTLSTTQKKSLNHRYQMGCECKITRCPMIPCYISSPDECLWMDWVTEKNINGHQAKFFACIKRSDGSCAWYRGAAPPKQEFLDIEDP

Recombinant C-domain of MMP2 (C-MMP2) (domain or fragment)
Kd (His+Ala+TIMP2 (human)): 0.00076 µM
Kd [1]: 1.9 µM
